What is called Tm is the temperature at which the thermal transition is half complete.

A short description of the series: melting temperature; melt of duplexes. To be noted: sodium 0.0675 M; strand 1 µM.
“CGACGTGCTTCATGTGCTG+CAGCACATCTCGCACGTCG ((((((((...((((((((+))))))))...))))))))”: the Tm is 47 °C. As for “CGACGTGCACGATGTGCTG+CAGCACATCTTGCACGTCG (((((((((.(((((((((+))))))))).)))))))))”, the figure is 55.7 °C; as for “CGACGTGCAGGATGTGCTG+CAGCACATGCAGCACGTCG ((((((((.(.((((((((+)))))))).).))))))))”, 55 °C; as for “CGACGTGCTGAATGTGCTG+CAGCACATACCGCACGTCG ((((((((.(.((((((((+)))))))).).))))))))”, 51.3 °C. As for “CGACGTGCGAAATGTGCTG+CAGCACATCGAGCACGTCG ((((((((...((((((((+))))))))...))))))))”, the figure is 55.9 °C; as for “CGACGTGCGATATGTGCTG+CAGCACATTCCGCACGTCG (((((((((..((((((((+))))))))..)))))))))”, 53.8 °C; as for “CGACGTGCTCGATGTGCTG+CAGCACATGGCGCACGTCG ((((((((.(.((((((((+)))))))).).))))))))”, 50.8 °C. “CGACGTGCTACATGTGCTG+CAGCACATAGAGCACGTCG (((((((((..((((((((+))))))))..)))))))))”: the Tm came to 52.5 °C. For the substance “CGACGTGCGGAATGTGCTG+CAGCACATTCCGCACGTCG (((((((((((((((((((+)))))))))))))))))))”, the Tm was 66.6 °C. Turning to “CGACGTGCAAGATGTGCTG+CAGCACATTGCGCACGTCG ((((((((...((((((((+))))))))...))))))))”, the midpoint of thermal melting (Tm) was 52.9 °C. For “CGACGTGCAGTATGTGCTG+CAGCACATTTAGCACGTCG ((((((((...((((((((+))))))))...))))))))” the value was 48.6 °C. For “CGACGTGCTGCATGTGCTG+CAGCACATGTAGCACGTCG (((((((((.(((((((((+))))))))).)))))))))” the value was 60.4 °C; for “CGACGTGCCAAATGTGCTG+CAGCACATCGCGCACGTCG ((((((((...((((((((+))))))))...))))))))”, 48.2 °C; for “CGACGTGCGACATGTGCTG+CAGCACATGTCGCACGTCG (((((((((((((((((((+)))))))))))))))))))”, 67.2 °C. As for “CGACGTGCTTTATGTGCTG+CAGCACATCCAGCACGTCG (((((((((..((((((((+))))))))..)))))))))”, the figure is 49.4 °C. “CGACGTGCTGTATGTGCTG+CAGCACATTTTGCACGTCG ((((((((...((((((((+))))))))...))))))))”: the Tm is 49.2 °C.

Consider “CGACGTGCGCGATGTGCTG+CAGCACATGCCGCACGTCG (((((((((..((((((((+))))))))..)))))))))”, for which the Tm is 55.9 °C. As for “CGACGTGCGTTATGTGCTG+CAGCACATGTCGCACGTCG (((((((((..((((((((+))))))))..)))))))))”, the figure is 55 °C.

As to “CGACGTGCTTTATGTGCTG+CAGCACATTGTGCACGTCG ((((((((...((((((((+))))))))...))))))))”, the Tm was 45.1 °C. For “CGACGTGCCGAATGTGCTG+CAGCACATGAGGCACGTCG (((((((((..((((((((+))))))))..)))))))))” the value was 63.8 °C; for “CGACGTGCCATATGTGCTG+CAGCACATCCGGCACGTCG (((((((((..((((((((+))))))))..)))))))))”, 52.8 °C; for “CGACGTGCCGAATGTGCTG+CAGCACATACAGCACGTCG ((((((((.(.((((((((+)))))))).).))))))))”, 50.4 °C.

In the case of “CGACGTGCGGCATGTGCTG+CAGCACATATAGCACGTCG ((((((((...((((((((+))))))))...))))))))”, the Tm amounted to 54.7 °C. Regarding “CGACGTGCATGATGTGCTG+CAGCACATCAAGCACGTCG ((((((((.((((((((((+)))))))))).))))))))”, the Tm came out at 56.5 °C.

For the substance “CGACGTGCGACATGTGCTG+CAGCACATACTGCACGTCG ((((((((...((((((((+))))))))...))))))))”, the Tm amounted to 49.9 °C. In the case of “CGACGTGCGAAATGTGCTG+CAGCACATGGGGCACGTCG ((((((((...((((((((+))))))))...))))))))”, the Tm is 52 °C. For “CGACGTGCTTTATGTGCTG+CAGCACATAATGCACGTCG ((((((((.((((((((((+)))))))))).))))))))” the value was 55.1 °C; for “CGACGTGCACCATGTGCTG+CAGCACATGAGGCACGTCG ((((((((..(((((((((+)))))))))..))))))))”, 53.9 °C; for “CGACGTGCGCGATGTGCTG+CAGCACATAAGGCACGTCG ((((((((...((((((((+))))))))...))))))))”, 50 °C.

For the substance “CGACGTGCGGAATGTGCTG+CAGCACATTACGCACGTCG (((((((((.(((((((((+))))))))).)))))))))”, the Tm turned out to be 62 °C.

“CGACGTGCACGATGTGCTG+CAGCACATTCTGCACGTCG (((((((((..((((((((+))))))))..)))))))))”: the Tm was determined as 49.2 °C.

Consider “CGACGTGCCCCATGTGCTG+CAGCACATAAGGCACGTCG (((((((((..((((((((+))))))))..)))))))))”, for which the Tm came out at 52.7 °C. Turning to “CGACGTGCATCATGTGCTG+CAGCACATACTGCACGTCG (((((((((..((((((((+))))))))..)))))))))”, the Tm stood at 49.7 °C. For “CGACGTGCTTAATGTGCTG+CAGCACATCTTGCACGTCG ((((((((...((((((((+))))))))...))))))))” the value was 48.9 °C. For “CGACGTGCTCGATGTGCTG+CAGCACATAACGCACGTCG ((((((((...((((((((+))))))))...))))))))” the value was 49 °C; for “CGACGTGCGGTATGTGCTG+CAGCACATAATGCACGTCG ((((((((..(((((((((+)))))))))..))))))))”, 54.6 °C; for “CGACGTGCCGAATGTGCTG+CAGCACATTGAGCACGTCG ((((((((..(((((((((+)))))))))..))))))))”, 53.3 °C.

“CGACGTGCTGAATGTGCTG+CAGCACATTCTGCACGTCG ((((((((.((((((((((+)))))))))).))))))))”: the melting temperature (Tm) was 59.2 °C. For “CGACGTGCGTTATGTGCTG+CAGCACATGTAGCACGTCG ((((((((...((((((((+))))))))...))))))))” the value was 53.6 °C; for “CGACGTGCAGAATGTGCTG+CAGCACATACAGCACGTCG ((((((((.(.((((((((+)))))))).).))))))))”, 52 °C; for “CGACGTGCCTAATGTGCTG+CAGCACATAACGCACGTCG ((((((((.(.((((((((+)))))))).).))))))))”, 48.2 °C. As for “CGACGTGCATGATGTGCTG+CAGCACATTAGGCACGTCG ((((((((.(.((((((((+)))))))).).))))))))”, the figure is 54 °C; as for “CGACGTGCGGTATGTGCTG+CAGCACATCAAGCACGTCG ((((((((...((((((((+))))))))...))))))))”, 54 °C; as for “CGACGTGCCTGATGTGCTG+CAGCACATATCGCACGTCG ((((((((...((((((((+))))))))...))))))))”, 47.7 °C.

Turning to “CGACGTGCGTAATGTGCTG+CAGCACATCATGCACGTCG ((((((((.(.((((((((+)))))))).).))))))))”, the Tm is 52.3 °C. As for “CGACGTGCTCCATGTGCTG+CAGCACATAGGGCACGTCG ((((((((.(.((((((((+)))))))).).))))))))”, the Tm amounted to 52.3 °C.

Turning to “CGACGTGCAACATGTGCTG+CAGCACATAAAGCACGTCG ((((((((...((((((((+))))))))...))))))))”, the Tm worked out at 48.9 °C. Regarding “CGACGTGCATAATGTGCTG+CAGCACATTAGGCACGTCG ((((((((.((((((((((+)))))))))).))))))))”, the Tm came to 57.7 °C. Regarding “CGACGTGCGGGATGTGCTG+CAGCACATCTAGCACGTCG ((((((((..(((((((((+)))))))))..))))))))”, the Tm was determined as 57.8 °C. Consider “CGACGTGCGTCATGTGCTG+CAGCACATGAAGCACGTCG ((((((((.((((((((((+)))))))))).))))))))”, for which the Tm is 59.4 °C. For “CGACGTGCAGTATGTGCTG+CAGCACATCACGCACGTCG ((((((((...((((((((+))))))))...))))))))” the value was 50.9 °C; for “CGACGTGCTTCATGTGCTG+CAGCACATGAAGCACGTCG (((((((((((((((((((+)))))))))))))))))))”, 64.4 °C.

In the case of “CGACGTGCGACATGTGCTG+CAGCACATCCCGCACGTCG (((((((((..((((((((+))))))))..)))))))))”, the Tm turned out to be 52.3 °C.

With “CGACGTGCAAAATGTGCTG+CAGCACATACGGCACGTCG ((((((((...((((((((+))))))))...))))))))”, the Tm was determined as 48 °C. Regarding “CGACGTGCCGGATGTGCTG+CAGCACATAGAGCACGTCG ((((((((...((((((((+))))))))...))))))))”, the melting temperature (Tm) was 50.2 °C. As for “CGACGTGCCTCATGTGCTG+CAGCACATTACGCACGTCG ((((((((.(.((((((((+)))))))).).))))))))”, the figure is 46.4 °C. For “CGACGTGCAAGATGTGCTG+CAGCACATATAGCACGTCG ((((((((.(.((((((((+)))))))).).))))))))” the value was 52 °C. Take “CGACGTGCTAGATGTGCTG+CAGCACATAACGCACGTCG ((((((((...((((((((+))))))))...))))))))”: the Tm came to 49.9 °C.

“CGACGTGCATGATGTGCTG+CAGCACATGGGGCACGTCG ((((((((...((((((((+))))))))...))))))))”: the Tm was 50 °C. For “CGACGTGCTTGATGTGCTG+CAGCACATCGGGCACGTCG ((((((((..(((((((((+)))))))))..))))))))” the value was 56.8 °C. As to “CGACGTGCGCCATGTGCTG+CAGCACATTCAGCACGTCG ((((((((...((((((((+))))))))...))))))))”, the Tm was found to be 49.8 °C.

Take “CGACGTGCGCGATGTGCTG+CAGCACATGTCGCACGTCG (((((((((..((((((((+))))))))..)))))))))”: the Tm came to 55.5 °C.

As for “CGACGTGCCATATGTGCTG+CAGCACATATGGCACGTCG (((((((((((((((((((+)))))))))))))))))))”, the Tm amounted to 63 °C. As for “CGACGTGCATTATGTGCTG+CAGCACATGTTGCACGTCG (((((((((..((((((((+))))))))..)))))))))”, the figure is 52.2 °C; as for “CGACGTGCATCATGTGCTG+CAGCACATGGGGCACGTCG ((((((((..(((((((((+)))))))))..))))))))”, 56.5 °C.

Take “CGACGTGCTCCATGTGCTG+CAGCACATCGTGCACGTCG ((((((((.(.((((((((+)))))))).).))))))))”: the Tm came to 44.7 °C.

The values are drawn from the array DNA melting data of Ke et al..
